The record followed here is US20260167699A1 (Chugai, published 2026).

B1: GpH7-A5/GpH7-B3 variant P331_03V/GpL16-k0 (antibody, human IgG1, kappa)
heavy 1: not shown
heavy 2: not shown
light: DIVMTQSPLSLPVTPGEPASISCQASESLVHSNRNTYLHWYLQKPGQSPQLLIYKVSNRFSGVPDRFSGSGSGTDFTLKISRVEAEDVGVYYCSQNTHVPPTFGQGTKVEIERTVAAPSVFIFPPSDEQLKSGTASVVCLLNNFYPREAKVQWKVDNALQSGNSQESVTEQDSKDSTYSLSSTLTLSKADYEKHKVYACEVTHQGLSSPVTKSFNRGEC
notes: copies: 1 + 1 + 2
B2: GpH7-A5/GpH7-B3 variant Q295_03V/GpL16-k0 (antibody, human IgG1, kappa)
heavy 1: not shown
heavy 2: not shown
light: DIVMTQSPLSLPVTPGEPASISCQASESLVHSNRNTYLHWYLQKPGQSPQLLIYKVSNRFSGVPDRFSGSGSGTDFTLKISRVEAEDVGVYYCSQNTHVPPTFGQGTKVEIERTVAAPSVFIFPPSDEQLKSGTASVVCLLNNFYPREAKVQWKVDNALQSGNSQESVTEQDSKDSTYSLSSTLTLSKADYEKHKVYACEVTHQGLSSPVTKSFNRGEC
notes: copies: 1 + 1 + 2
B3: GpH7-A5/GpH7-B3 variant Q295_06M/GpL16-k0 (antibody, human IgG1, kappa)
heavy 1: not shown
heavy 2: not shown
light: DIVMTQSPLSLPVTPGEPASISCQASESLVHSNRNTYLHWYLQKPGQSPQLLIYKVSNRFSGVPDRFSGSGSGTDFTLKISRVEAEDVGVYYCSQNTHVPPTFGQGTKVEIERTVAAPSVFIFPPSDEQLKSGTASVVCLLNNFYPREAKVQWKVDNALQSGNSQESVTEQDSKDSTYSLSSTLTLSKADYEKHKVYACEVTHQGLSSPVTKSFNRGEC
notes: copies: 1 + 1 + 2
B4: GpH7-A5/GpH7-B3 variant Q295_01G/GpL16-k0 (antibody, human IgG1, kappa)
heavy 1: not shown
heavy 2: not shown
light: DIVMTQSPLSLPVTPGEPASISCQASESLVHSNRNTYLHWYLQKPGQSPQLLIYKVSNRFSGVPDRFSGSGSGTDFTLKISRVEAEDVGVYYCSQNTHVPPTFGQGTKVEIERTVAAPSVFIFPPSDEQLKSGTASVVCLLNNFYPREAKVQWKVDNALQSGNSQESVTEQDSKDSTYSLSSTLTLSKADYEKHKVYACEVTHQGLSSPVTKSFNRGEC
notes: copies: 1 + 1 + 2
B5: GpH7-A5/GpH7-B3 variant P331_08L/GpL16-k0 (antibody, human IgG1, kappa)
heavy 1: not shown
heavy 2: not shown
light: DIVMTQSPLSLPVTPGEPASISCQASESLVHSNRNTYLHWYLQKPGQSPQLLIYKVSNRFSGVPDRFSGSGSGTDFTLKISRVEAEDVGVYYCSQNTHVPPTFGQGTKVEIERTVAAPSVFIFPPSDEQLKSGTASVVCLLNNFYPREAKVQWKVDNALQSGNSQESVTEQDSKDSTYSLSSTLTLSKADYEKHKVYACEVTHQGLSSPVTKSFNRGEC
notes: copies: 1 + 1 + 2
B6: GpH7-A5/GpH7-B3 variant P331_16H/GpL16-k0 (antibody, human IgG1, kappa)
heavy 1: not shown
heavy 2: not shown
light: DIVMTQSPLSLPVTPGEPASISCQASESLVHSNRNTYLHWYLQKPGQSPQLLIYKVSNRFSGVPDRFSGSGSGTDFTLKISRVEAEDVGVYYCSQNTHVPPTFGQGTKVEIERTVAAPSVFIFPPSDEQLKSGTASVVCLLNNFYPREAKVQWKVDNALQSGNSQESVTEQDSKDSTYSLSSTLTLSKADYEKHKVYACEVTHQGLSSPVTKSFNRGEC
notes: copies: 1 + 1 + 2
B7: GpH7-A5/GpH7-B3 variant P331_20W/GpL16-k0 (antibody, human IgG1, kappa)
heavy 1: not shown
heavy 2: not shown
light: DIVMTQSPLSLPVTPGEPASISCQASESLVHSNRNTYLHWYLQKPGQSPQLLIYKVSNRFSGVPDRFSGSGSGTDFTLKISRVEAEDVGVYYCSQNTHVPPTFGQGTKVEIERTVAAPSVFIFPPSDEQLKSGTASVVCLLNNFYPREAKVQWKVDNALQSGNSQESVTEQDSKDSTYSLSSTLTLSKADYEKHKVYACEVTHQGLSSPVTKSFNRGEC
notes: copies: 1 + 1 + 2
B8: GpH7-A5/GpH7-B3 variant Q295_05P/GpL16-k0 (antibody, human IgG1, kappa)
heavy 1: not shown
heavy 2: not shown
light: DIVMTQSPLSLPVTPGEPASISCQASESLVHSNRNTYLHWYLQKPGQSPQLLIYKVSNRFSGVPDRFSGSGSGTDFTLKISRVEAEDVGVYYCSQNTHVPPTFGQGTKVEIERTVAAPSVFIFPPSDEQLKSGTASVVCLLNNFYPREAKVQWKVDNALQSGNSQESVTEQDSKDSTYSLSSTLTLSKADYEKHKVYACEVTHQGLSSPVTKSFNRGEC
notes: copies: 1 + 1 + 2
B9: GpH7-A5/GpH7-B3 variant P331_15Y/GpL16-k0 (antibody, human IgG1, kappa)
heavy 1: not shown
heavy 2: not shown
light: DIVMTQSPLSLPVTPGEPASISCQASESLVHSNRNTYLHWYLQKPGQSPQLLIYKVSNRFSGVPDRFSGSGSGTDFTLKISRVEAEDVGVYYCSQNTHVPPTFGQGTKVEIERTVAAPSVFIFPPSDEQLKSGTASVVCLLNNFYPREAKVQWKVDNALQSGNSQESVTEQDSKDSTYSLSSTLTLSKADYEKHKVYACEVTHQGLSSPVTKSFNRGEC
notes: copies: 1 + 1 + 2
B10: GpH7-A5/GpH7-B3 variant P331_06M/GpL16-k0 (antibody, human IgG1, kappa)
heavy 1: not shown
heavy 2: not shown
light: DIVMTQSPLSLPVTPGEPASISCQASESLVHSNRNTYLHWYLQKPGQSPQLLIYKVSNRFSGVPDRFSGSGSGTDFTLKISRVEAEDVGVYYCSQNTHVPPTFGQGTKVEIERTVAAPSVFIFPPSDEQLKSGTASVVCLLNNFYPREAKVQWKVDNALQSGNSQESVTEQDSKDSTYSLSSTLTLSKADYEKHKVYACEVTHQGLSSPVTKSFNRGEC
notes: copies: 1 + 1 + 2
B11: GpH7-A5/GpH7-B3 variant P331_18N/GpL16-k0 (antibody, human IgG1, kappa)
heavy 1: not shown
heavy 2: not shown
light: DIVMTQSPLSLPVTPGEPASISCQASESLVHSNRNTYLHWYLQKPGQSPQLLIYKVSNRFSGVPDRFSGSGSGTDFTLKISRVEAEDVGVYYCSQNTHVPPTFGQGTKVEIERTVAAPSVFIFPPSDEQLKSGTASVVCLLNNFYPREAKVQWKVDNALQSGNSQESVTEQDSKDSTYSLSSTLTLSKADYEKHKVYACEVTHQGLSSPVTKSFNRGEC
notes: copies: 1 + 1 + 2

T1 sequence (P08637 other isoform, or with tags, fused parts or gaps): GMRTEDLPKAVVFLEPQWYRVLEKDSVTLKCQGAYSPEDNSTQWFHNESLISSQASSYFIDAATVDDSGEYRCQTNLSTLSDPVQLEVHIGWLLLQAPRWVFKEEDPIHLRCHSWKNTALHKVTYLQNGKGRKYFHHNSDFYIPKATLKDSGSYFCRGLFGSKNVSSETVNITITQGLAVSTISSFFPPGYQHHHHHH

The test concerns the target T1, FcγRIIIa (human, UniProt P08637 17-208).
T1 construct: extracellular domain; also called 3a; FcγRIIIa extracellular domain
Put plainly: SPR (Biacore).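 Also: antibody variants captured on an SPR sensor chip, with FcγRIIIa passed over as analyte in HBS-EP+ buffer at 25 °C.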
Procedure: The antibody of interest was analyzed for its interaction with FcγR using a BiaCore™ T100, BiaCore™ A100, or BiaCore™ 4000 surface plasmon resonance system (GE Healthcare Japan Corp.). The running buffer used was HBS-EP+ (GE Healthcare Japan Corp.). The assay temperature was set to 25° C. The sensor chips used were: a chip prepared by immobilizing antigenic peptides onto Series S Sensor Chip CM5 (GE Healthcare Japan Corp.) by the amine coupling method; a chip prepared by immobilizing antigenic peptides biotinylated in advance onto Series S Sensor Chip SA (certified) (GE Healthcare Japan Corp.) through their interaction; a chip prepared by immobilizing protein L (ACTIGEN, BioVision, Inc.) onto Series S Sensor Chip CM5 (GE Healthcare Japan Corp.); and a chip prepared by immobilizing protein A/G (Thermo Fisher Scientific K.K.) onto Series S Sensor Chip CM5 (GE Healthcare Japan Corp.). The antibody of interest was captured onto any of these chips and allowed to interact with FcγR diluted with a running buffer. The antibody captured on the chip was washed off through the reaction of 10 mM glycine-HCl (pH 1.5) to regenerate the chip, which was repetitively used.
For B1, the “He/Con 3a” value is 66.9 % of GpH7-A5/GpH7-B3/GpL16-k0.

Consider B2, for which the “He/Con 3a” value was 86.2 % of GpH7-A5/GpH7-B3/GpL16-k0.

Turning to B3, the “He/Con 3a” value is 100 % of GpH7-A5/GpH7-B3/GpL16-k0.

With B4, the “He/Con 3a” value was 76.6 % of GpH7-A5/GpH7-B3/GpL16-k0.

As to B5, the “He/Con 3a” value is 66 % of GpH7-A5/GpH7-B3/GpL16-k0.

For B6, the “He/Con 3a” value was 73.4 % of GpH7-A5/GpH7-B3/GpL16-k0.

Regarding B7, the “He/Con 3a” value was 71.9 % of GpH7-A5/GpH7-B3/GpL16-k0.

For the molecule B8, the “He/Con 3a” value is 74.4 % of GpH7-A5/GpH7-B3/GpL16-k0.

For the molecule B9, the “He/Con 3a” value was 74.9 % of GpH7-A5/GpH7-B3/GpL16-k0.

As for B10, the “He/Con 3a” value is 68.4 % of GpH7-A5/GpH7-B3/GpL16-k0.

Regarding B11, the “He/Con 3a” value was 67.1 % of GpH7-A5/GpH7-B3/GpL16-k0.
